{"source": "patent US9585933B2", "about": "“Therapeutic use of peptide inhibitors of NADPH oxidase; aerosolization as a delivery mechanism” (University of Pittsburgh—Of the Commonwealth System of …, priority 2011, dated 2017)", "key": {"[1]": {"target": "T1, Nox2 oxidase (COS-Nox2 lysate: Nox2, p22phox, p47phox, p67phox) (Homo sapiens, UniProt P14598)", "T1 construct": "host or cells: COS 7 cells, stably transfected; cell lysate used", "T1 sequence (P14598 1-390)": "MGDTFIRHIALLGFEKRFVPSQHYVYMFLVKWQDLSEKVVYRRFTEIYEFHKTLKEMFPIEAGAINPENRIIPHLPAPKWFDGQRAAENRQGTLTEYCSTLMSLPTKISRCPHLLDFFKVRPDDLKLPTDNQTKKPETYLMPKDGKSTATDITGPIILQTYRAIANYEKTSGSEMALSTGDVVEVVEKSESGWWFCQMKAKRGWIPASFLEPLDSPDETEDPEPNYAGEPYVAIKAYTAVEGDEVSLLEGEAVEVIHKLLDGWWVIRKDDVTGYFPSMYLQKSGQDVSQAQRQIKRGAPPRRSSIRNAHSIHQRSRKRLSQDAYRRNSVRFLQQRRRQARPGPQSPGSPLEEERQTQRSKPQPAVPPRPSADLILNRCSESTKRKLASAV", "test": "Cell-free SOD-inhibitable cytochrome c reduction assay, O2- production in COS-Nox2 lysates", "format": "biochemical", "experimental": "(§1) To test this hypothesis, the inhibitory activity of Nox2ds was assessed in cell-free assays using reconstituted systems expressing either Nox1, 2 or 4 oxidase. Nox 2 oxidase was recapitulated by stably transfecting COS 7 cells with Nox2, p22phox, p47phox, and p67phox (aka COS-Nox2). Nox1 oxidase was obtained by transfecting COS 7 cells with Nox1, p22phox, NOXO1 and NOXA1 (COS-Nox1), and Nox 4 oxidase was regenerated by transfection of COS 7 cells with Nox4 and p22phox. […] Our new data support selectivity of Nox2ds peptide in differentiating the contribution of Nox2 vs. Nox1 and Nox4 NADPH oxidase and its potential clinical use in ameliorating cardiopulmonary diseases.\nCOS-Nox2: COS 7 cells transfected with p22^phox, Nox2, p47^phox and p67^phox (M. Dinauer, Indiana University). (Price M O, McPhail L C, Lambeth J D, Han C H, Knaus U G, Dinauer M C. Blood. 2002 Apr. 15; 99(8):2653-61.)\nSuperoxide (O2^−) production was measured in COS-Nox1 and COS-Nox2 lysates by determining the rate of O2^− dismutase (SOD) inhibitable cytochrome c reduction and by electron paramagnetic resonance (EPR).\nCOS-Nox2, COS-Nox1/NOXO1/NOXA1, and COS-22 cells were suspended to a concentration of 5×10^7 cells/ml in ice-cold disruption buffer (8 mM potassium, sodium phosphate buffer, pH 7.0, 131 mM NaCl, 340 mM sucrose, 2 mM NaN3, 5 mM MgCl2, 1 mM EGTA, 1 mM EDTA, and protease inhibitor cocktail). The cells were lysed by five freeze/thaw cycles and passed through a 30-gauge needle five times to further lyse the cells. Cell disruption was confirmed by phase-contrast microscopy. The cell lysate was centrifuged at 1000 g for 10 min at 4° C. to remove unbroken cells, nuclei, and debris. Throughout all these procedures, extreme care was taken to maintain the lysate at a temperature close to 0° C. Superoxide production was calculated from the initial linear rate (over 10 min) of SOD-inhibitable cytochrome c reduction quantified at 550 nm using the extinction coefficient of 21.1 mM-1 cm-1 (Biotek Synergy 4 hybrid multimode microplate reader). The oxidase assay buffer consisted of 65 mM sodium phosphate buffer (pH 7.0), 1 mM EGTA, 10 μM FAD, 1 mM MgCl2, 2 mM NaN3, and 0.2 mM cytochrome c. The components of the cell-free system were added in the following order: oxidase assay buffer, cell lysate (5×10^5 cell equivalents/well), and Nox2ds/Scrmb Nox2ds peptides at a final concentration of 0.1, 0.3, 1.0, 3.0, and 10 μM. The plates were placed on an orbital shaker to mix contents for 5 min at 120 movements/min at room temperature. LIDS, an established lipid activator of phagocyte cell-free systems, was added at a concentration of 130 μM, and O2^− production was initiated by the addition of 180 μM NADPH. The concentration of Nox2ds peptide that caused 50% inhibition of O2^− production (IC50) in COS-Nox2 cell lysates was calculated by Prism 5 (GraphPad Software, La Jolla, Calif., USA).\nCytochrome C Assay. FIG. 3A. Rate of O2^− production in COS-Nox2 lysates pretreated with Nox2ds or scrambled control (Scrmb Nox2ds). O2^− production was initiated by the addition of NADPH and measured by the SOD-inhibitable cytochrome c reduction for 10 min."}, "[2]": {"target": "T2, Nox2 oxidase (COS-Nox2 lysate) (Homo sapiens, UniProt P14598)", "T2 construct": "host or cells: COS 7 cells, stably transfected; cell lysate used", "T2 sequence (P14598 1-390)": "T1 sequence (P14598 1-390)", "test": "EPR with spin probe CMH, O2- production in COS-Nox2 lysates", "format": "biochemical", "conditions": "10 μM peptide, vehicle 36330±2658", "experimental": "as §1\nThe spin probe 1-hydroxy-3-methoxycarbonyl-2,2,5,5-tetramethylpyrrolidine hydrochloride (CMH; Alexis Corp., San Diego, Calif., USA) was used to examine O2^− production in COS-Nox2 cell lysates using a Bruker eScan table-top EPR spectrometer (Bruker Biospin, USA). Superoxide production was measured in oxidase assay buffer (65 mM sodium phosphate buffer, pH 7.0, 1 mM EGTA, 10 μM FAD, 1 mM MgCl2, 2 mM NaN3) supplemented with 50 μM CMH. […] Analyses of the EPR spectra peak heights were used to quantify the amount of O2^− produced by the lysates and were compared with buffer-only control spectra or spectra in the presence of 10 μM Nox2ds, 10 μM Scrmb Nox2ds, or 150 U/ml SOD. […]"}}, "data": [{"sequence": "CLRVTRQSR (Scrambled Nox2ds) [scrmb Nox2ds, reference compound]", "values": [{"measurement": "rate of O2- generation, SOD-inhibitable reduction of cytochrome c", "setting": "[1]; 10 μM peptide, 0 μM control 1.33±0.1", "value": "1.44±0.2 nmol O2^−/min/10^7 lysate-cell equivalents"}, {"measurement": "inhibition of Nox2-oxidase O2- production (in words)", "setting": "[1]; cytochrome c assay", "value": "did not inhibit"}, {"measurement": "CM radical intensity (EPR, O2- production)", "setting": "[2]", "value": "34142±6075"}]}]}
